According to paper PMC8965865:
Changes are numbered by the printed parent chain.

Tests used:
[1] = biological target: T1, Fur (Mycobacterium smegmatis mc2155) (UniProt A0QXX6); test: EMSA; details: 20 mM Tris HCl pH 8.0, 1 mM DTT, 50 mM KCl, 5 mM MgCl2, 20 ul, 30 min at 30 C
T1 sequence: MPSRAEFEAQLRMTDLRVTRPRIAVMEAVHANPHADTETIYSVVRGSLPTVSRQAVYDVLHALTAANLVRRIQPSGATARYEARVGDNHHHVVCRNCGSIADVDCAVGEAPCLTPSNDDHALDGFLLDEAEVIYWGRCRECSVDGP

[2] = biological target: T2, mFur (A28V Fur) A28V (Mycobacterium smegmatis mc251) (UniProt A0QXX6); test: EMSA; details: 20 mM Tris HCl pH 8.0, 1 mM DTT, 50 mM KCl, 5 mM MgCl2, 20 ul, 30 min at 30 C
T2 sequence: T1 sequence with A28V

What does the source list for “CATCCGCAGTTGGGCTTCGAACTCCGCCCGAGAGGGCATGCCGCCCACCTTGCTCGCCCGATTGGACGCAGTCAAGTCTTTCTCGAATTCGGTATGTCGGTGCATGTCTCGCTCCGATCTGGGAGCTCGGATGGGAGGCGCAAGAGCGAGCCGCGTTCGGCCATTGTCGGCCGACCGCTTCTGCGCGCAGGCTTGCTGCGGCGGTTACCCCGATGTGCCCGACGCTATACCTCCAGCCGAAGAAATTTCTTGCAATGGTTGTTTTCCAACG (double strand) [fur promoter DNA fragment]”?
binding [1]: binds; binding [2]: binds more weakly
